We go through one molecule from PMC10279719 (Nature Communications, 2023).

For orientation: stoichiometry N means a count of units in the complex or per binding partner. The term Kd denotes the constant that tells how readily two partners part at equilibrium.

What all share (conditions): both partners purified
The target in assay [1] is T1, PEAK3 tandem-pS69 peptide (residues 54-74) (human, N-terminal acetyl; phosphoserine at S69; C-terminal amide).
T1 construct: source: synthetic peptide, bought: Mimotopes (95% purity)
T1 peptide: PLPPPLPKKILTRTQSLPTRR
In words: ITC; binary; peptide in the cell (20 µM, or 16.8 µM after a buffer titration), protein in the syringe; 25 °C, 20 mM HEPES pH 7.4, 150 mM NaCl, 1 mM TCEP; single binding site model. (In ITC the heat of successive injections is recorded.)

In assay [2] the target is T2, PEAK3 tandem peptide, non-phosphorylated (residues 54-74) (human, N-terminal acetyl; C-terminal amide).
T2 construct: source: synthetic peptide, bought: Mimotopes (95% purity)
T2 peptide: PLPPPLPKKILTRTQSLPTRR
The description is as above.

The target in assay [3] is T3, PEAK2^IDR1 (residues 802-1406), from insect cells (human, UniProt Q86YV5 802-1406, phosphorylation of the tandem site 14-3-3 motif (RAASSP) found by proteomic analysis; biotin (EZ-Link NHS-PEG4-Biotin, 1:1 molar ratio)).
T3 construct: human PEAK2 (SgK223, PRAG1), UniProt Q86YV5, residues 802-1406; Purifies as a homodimer
T3 sequence (looked up): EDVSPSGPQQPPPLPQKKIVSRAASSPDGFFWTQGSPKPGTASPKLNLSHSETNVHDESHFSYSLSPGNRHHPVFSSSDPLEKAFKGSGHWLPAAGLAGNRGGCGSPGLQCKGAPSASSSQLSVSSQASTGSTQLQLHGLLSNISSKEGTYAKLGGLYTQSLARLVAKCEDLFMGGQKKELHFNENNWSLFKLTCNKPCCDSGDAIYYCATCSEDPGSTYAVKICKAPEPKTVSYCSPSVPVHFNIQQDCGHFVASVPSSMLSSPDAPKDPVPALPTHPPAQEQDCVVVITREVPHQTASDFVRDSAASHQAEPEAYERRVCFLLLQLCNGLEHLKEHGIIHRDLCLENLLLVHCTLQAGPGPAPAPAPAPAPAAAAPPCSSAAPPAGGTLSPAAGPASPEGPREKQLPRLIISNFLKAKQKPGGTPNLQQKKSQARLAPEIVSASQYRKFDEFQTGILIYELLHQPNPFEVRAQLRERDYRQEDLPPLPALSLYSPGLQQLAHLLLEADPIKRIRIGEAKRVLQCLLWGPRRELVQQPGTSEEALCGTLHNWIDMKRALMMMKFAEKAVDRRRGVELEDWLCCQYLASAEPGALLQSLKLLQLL
In words: SPR; biotinylated PEAK proteins (with or without Src phosphorylation) captured with a biotin CAPture kit, CrkII NSH3 as analyte; Biacore 8K+, 20 °C, HBS-TP (150 mM NaCl); 1 M NaCl regeneration; steady state.

Assay [4] has as its target T4, PEAK2^IDR1 (residues 802-1406), from insect cells, phosphorylated by Src (human, UniProt Q86YV5 802-1406, phosphorylated with Src kinase, sites not stated; phosphorylation of the tandem site 14-3-3 motif (RAASSP) found by proteomic analysis; biotin (EZ-Link NHS-PEG4-Biotin, 1:1 molar ratio)).
T4 construct: human PEAK2 (SgK223, PRAG1), UniProt Q86YV5, residues 802-1406; also called PEAK2-IDR1 (+ Src phosphorylation); source: Sf21 insect cells, purified; phosphorylated in vitro with recombinant Src kinase domain
T4 sequence (looked up): T3 sequence (looked up)
Described as above.

For assay [5], the target named is T5, full length PEAK3 (PEAK3^FL, residues 1-473), from E. coli (human, UniProt Q6ZS72 1-473, biotin (EZ-Link NHS-PEG4-Biotin, 1:1 molar ratio)).
T5 construct: also called PEAK3-FL E.coli; source: E. coli C41 (DE3), purified (two-step purification)
T5 sequence (looked up): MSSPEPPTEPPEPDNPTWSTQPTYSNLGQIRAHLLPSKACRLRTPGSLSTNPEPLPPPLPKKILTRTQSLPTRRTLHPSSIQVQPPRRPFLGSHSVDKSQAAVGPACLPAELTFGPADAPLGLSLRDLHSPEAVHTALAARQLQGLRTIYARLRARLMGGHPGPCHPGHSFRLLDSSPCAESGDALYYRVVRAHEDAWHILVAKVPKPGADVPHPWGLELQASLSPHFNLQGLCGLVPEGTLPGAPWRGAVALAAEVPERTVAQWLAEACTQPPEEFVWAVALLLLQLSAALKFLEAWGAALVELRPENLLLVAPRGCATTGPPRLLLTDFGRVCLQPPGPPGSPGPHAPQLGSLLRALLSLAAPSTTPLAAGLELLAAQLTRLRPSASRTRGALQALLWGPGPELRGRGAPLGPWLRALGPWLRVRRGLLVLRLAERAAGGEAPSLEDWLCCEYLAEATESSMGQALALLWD
The description is as above.

Assay [6] deals with T2, PEAK3 tandem peptide, …. Nature of the assay: ITC; second of two sequential titrations ('ternary'); CrkII NSH3 (400 µM) in the syringe titrated into the non-phosphorylated PEAK3 tandem peptide (16.8 µM) with the 14-3-3γ of the first titration, which did not bind, still in the cell; 25 °C, 20 mM HEPES pH 7.4, 150 mM NaCl, 1 mM TCEP.

B1: CrkII N-terminal SH3 domain (CrkII^NSH3, residues 134-191) (domain or fragment, human, UniProt P46108-1 134-191, looked up)
chain: AEYVRALFDFNGNDEEDLPFKKGDILRIRDKPEEQWWNAEDSEGKRGMIPVPYVEKYR
notes: human CrkII NSH3 domain, UniProt P46108-1, residues 134-191; Amine coupled to a CM5 chip in a2; analyte in a4; in the syringe in ITC
B1: the “stoichiometry N” value is 0.823 in assay [1], 0.904 in assay [2] and 0.654 in assay [6]. Moreover, the figures for the Kd in assay [3], in assay [4] and in assay [5] were 4.79 µM, 5.2 µM and 9.6 µM, respectively.
